Assay results: PMC4048260

Legend:
[1] = target: NL4-3 gp140 trimer (soluble, uncleaved gp140 from the X4 HIV-1 subtype B strain NL4-3) (HIV-1 (subtype B, strain NL4-3)); assay: negative-stain electron microscopy, single particle 3D reconstruction; purified trimers, ~0.02 mg/ml, 2% uranyl formate, about 3,000 particles per data set, C3 symmetry applied, resolution ~25 Å
[2] = target: NL4-3/ADA gp140 trimer (hybrid: NL4-3 gp140 with the V3 spanning region of the R5 strain ADA) (HIV-1 (subtype B, strain NL4-3) | HIV-1 (subtype B, strain ADA)); assay: as above

| Substance | stoichiometry N [1] | stoichiometry N [2] |
| --- | --- | --- |
| NL4-3 gp140 trimer (soluble, uncleaved gp140 from the X4 HIV-1 subtype B strain NL4-3) (domain or fragment) | 3 | – |
| NL4-3/ADA gp140 trimer (hybrid: NL4-3 gp140 with the V3 spanning region of the R5 strain ADA) (domain or fragment) | – | 3 |
